Data from the Human Domainome abundance scans (Beltran et al. 2025).
± gives the uncertainty stated by the source.

B1: Metastasis-associated protein MTA3, residues 265 to 317; numbered along this chain, Q9BTC8 (parent)
chain: RDEMEEWSASEASLFEEALEKYGKDFNDIRQDFLPWKSLTSIIEYYYMWKTTD

Variants of: B1
Test: abundance fitness (aPCA) (normalised: wild type 0, dead -1); higher = more abundant; growth selection in yeast, the domain comes from the species named
Details: Homo sapiens

Going from RDEMEEASASEASLFEEALEKYGKDFNDIRQDFLPWKSLTSIIEYYYMWKTTD [W7A] to RDEMEWWSASEASLFEEALEKYGKDFNDIRQDFLPWKSLTSIIEYYYMWKTTD [E6W], the abundance fitness falls from -0.51 ± 0.12 to -0.862 ± 0.15.

Going from RDEMEVWSASEASLFEEALEKYGKDFNDIRQDFLPWKSLTSIIEYYYMWKTTD [E6V] to RDEMETWSASEASLFEEALEKYGKDFNDIRQDFLPWKSLTSIIEYYYMWKTTD [E6T], the abundance fitness falls from 0.443 ± 0.2 to -0.267 ± 0.4.

Compared with RDEMEEWSASAASLFEEALEKYGKDFNDIRQDFLPWKSLTSIIEYYYMWKTTD [E11A], RDEMEEWSASMASLFEEALEKYGKDFNDIRQDFLPWKSLTSIIEYYYMWKTTD [E11M] is higher in abundance fitness: -0.623 ± 0.092 for the first, 0.052 ± 0.11 for the second.

Going from RDEMEEWSASSASLFEEALEKYGKDFNDIRQDFLPWKSLTSIIEYYYMWKTTD [E11S] to RDEMEEWSASTASLFEEALEKYGKDFNDIRQDFLPWKSLTSIIEYYYMWKTTD [E11T], the abundance fitness rises from -0.883 ± 0.11 to -0.567 ± 0.081.

RDEMEEWSASFASLFEEALEKYGKDFNDIRQDFLPWKSLTSIIEYYYMWKTTD [E11F] and RDEMEEWSASLASLFEEALEKYGKDFNDIRQDFLPWKSLTSIIEYYYMWKTTD [E11L] are within error of each other in abundance fitness: -0.87 ± 0.087 for the first, -0.713 ± 0.088 for the second.

RDEMEEWSASCASLFEEALEKYGKDFNDIRQDFLPWKSLTSIIEYYYMWKTTD [E11C] and RDEMEEWSASGASLFEEALEKYGKDFNDIRQDFLPWKSLTSIIEYYYMWKTTD [E11G] are within error of each other in abundance fitness: -0.818 ± 0.21 for the first, -0.68 ± 0.15 for the second.

First: RDEMEEWSASDASLFEEALEKYGKDFNDIRQDFLPWKSLTSIIEYYYMWKTTD [E11D]
Second: RDEMEEWSASHASLFEEALEKYGKDFNDIRQDFLPWKSLTSIIEYYYMWKTTD [E11H]
The abundance fitness of the first is higher: 0.386 ± 0.078 for the first, -0.175 ± 0.12 for the second.

RDEMEEWSASQASLFEEALEKYGKDFNDIRQDFLPWKSLTSIIEYYYMWKTTD [E11Q] and RDEMEEWSASWASLFEEALEKYGKDFNDIRQDFLPWKSLTSIIEYYYMWKTTD [E11W] are within error of each other in abundance fitness: -0.811 ± 0.11 for the first, -0.78 ± 0.1 for the second.

Going from RDEMEEWSASNASLFEEALEKYGKDFNDIRQDFLPWKSLTSIIEYYYMWKTTD [E11N] to RDEMEEWSASKASLFEEALEKYGKDFNDIRQDFLPWKSLTSIIEYYYMWKTTD [E11K], the abundance fitness rises from -0.91 ± 0.2 to -0.562 ± 0.11.

First: RDEMEEWSASIASLFEEALEKYGKDFNDIRQDFLPWKSLTSIIEYYYMWKTTD [E11I]
Second: RDEMEEWSASVASLFEEALEKYGKDFNDIRQDFLPWKSLTSIIEYYYMWKTTD [E11V]
The abundance fitness of the first is lower: -1.1 ± 0.22 for the first, -0.7 ± 0.12 for the second.

RDEMEEWSASPASLFEEALEKYGKDFNDIRQDFLPWKSLTSIIEYYYMWKTTD [E11P] and RDEMEEWSASRASLFEEALEKYGKDFNDIRQDFLPWKSLTSIIEYYYMWKTTD [E11R] are within error of each other in abundance fitness: -1.04 ± 0.19 for the first, -0.92 ± 0.13 for the second.

Compared with RDEMEEWSASYASLFEEALEKYGKDFNDIRQDFLPWKSLTSIIEYYYMWKTTD [E11Y], RDEMEEWSAGEASLFEEALEKYGKDFNDIRQDFLPWKSLTSIIEYYYMWKTTD [S10G] is higher in abundance fitness: -0.788 ± 0.19 for the first, -0.275 ± 0.092 for the second.

First: RDEMEEWSAWEASLFEEALEKYGKDFNDIRQDFLPWKSLTSIIEYYYMWKTTD [S10W]
Second: RDEMEEWSAREASLFEEALEKYGKDFNDIRQDFLPWKSLTSIIEYYYMWKTTD [S10R]
The abundance fitness of the first is higher: 0.031 ± 0.084 for the first, -0.156 ± 0.072 for the second.

RDEMEEWSAFEASLFEEALEKYGKDFNDIRQDFLPWKSLTSIIEYYYMWKTTD [S10F] and RDEMEEWSAQEASLFEEALEKYGKDFNDIRQDFLPWKSLTSIIEYYYMWKTTD [S10Q] are within error of each other in abundance fitness: -0.216 ± 0.13 for the first, -0.252 ± 0.11 for the second.

RDEMEEWSAMEASLFEEALEKYGKDFNDIRQDFLPWKSLTSIIEYYYMWKTTD [S10M] and RDEMEEWSAAEASLFEEALEKYGKDFNDIRQDFLPWKSLTSIIEYYYMWKTTD [S10A] are within error of each other in abundance fitness: -0.152 ± 0.1 for the first, -0.154 ± 0.087 for the second.

RDEMEEWSAYEASLFEEALEKYGKDFNDIRQDFLPWKSLTSIIEYYYMWKTTD [S10Y] and RDEMEEWSATEASLFEEALEKYGKDFNDIRQDFLPWKSLTSIIEYYYMWKTTD [S10T] are within error of each other in abundance fitness: -0.158 ± 0.083 for the first, -0.091 ± 0.08 for the second.

RDEMEEWSANEASLFEEALEKYGKDFNDIRQDFLPWKSLTSIIEYYYMWKTTD [S10N] and RDEMEEWSAEEASLFEEALEKYGKDFNDIRQDFLPWKSLTSIIEYYYMWKTTD [S10E] are within error of each other in abundance fitness: -0.005 ± 0.14 for the first, -0.012 ± 0.1 for the second.

First: RDEMEEWSAKEASLFEEALEKYGKDFNDIRQDFLPWKSLTSIIEYYYMWKTTD [S10K]
Second: RDEMEEWSALEASLFEEALEKYGKDFNDIRQDFLPWKSLTSIIEYYYMWKTTD [S10L]
The abundance fitness of the first is higher: 0.219 ± 0.1 for the first, -0.038 ± 0.063 for the second.

RDEMEEWSAIEASLFEEALEKYGKDFNDIRQDFLPWKSLTSIIEYYYMWKTTD [S10I] and RDEMEEWSAPEASLFEEALEKYGKDFNDIRQDFLPWKSLTSIIEYYYMWKTTD [S10P] are within error of each other in abundance fitness: -0.462 ± 0.2 for the first, -0.743 ± 0.1 for the second.

RDEMEEWSAHEASLFEEALEKYGKDFNDIRQDFLPWKSLTSIIEYYYMWKTTD [S10H] and RDEMEEWSASEISLFEEALEKYGKDFNDIRQDFLPWKSLTSIIEYYYMWKTTD [A12I] are within error of each other in abundance fitness: -0.139 ± 0.13 for the first, -0.117 ± 0.17 for the second.

RDEMEEWSASEDSLFEEALEKYGKDFNDIRQDFLPWKSLTSIIEYYYMWKTTD [A12D] and RDEMEEWSASEGSLFEEALEKYGKDFNDIRQDFLPWKSLTSIIEYYYMWKTTD [A12G] are within error of each other in abundance fitness: -0.875 ± 0.19 for the first, -0.618 ± 0.098 for the second.

Compared with RDEMEEWSASELSLFEEALEKYGKDFNDIRQDFLPWKSLTSIIEYYYMWKTTD [A12L], RDEMEEWSASEFSLFEEALEKYGKDFNDIRQDFLPWKSLTSIIEYYYMWKTTD [A12F] is lower in abundance fitness: -0.473 ± 0.069 for the first, -0.941 ± 0.27 for the second.

RDEMEEWSASEHSLFEEALEKYGKDFNDIRQDFLPWKSLTSIIEYYYMWKTTD [A12H] and RDEMEEWSASEMSLFEEALEKYGKDFNDIRQDFLPWKSLTSIIEYYYMWKTTD [A12M] are within error of each other in abundance fitness: -0.041 ± 0.11 for the first, 0.068 ± 0.12 for the second.

RDEMEEWSASEESLFEEALEKYGKDFNDIRQDFLPWKSLTSIIEYYYMWKTTD [A12E] and RDEMEEWSASECSLFEEALEKYGKDFNDIRQDFLPWKSLTSIIEYYYMWKTTD [A12C] are within error of each other in abundance fitness: -0.471 ± 0.21 for the first, -0.273 ± 0.099 for the second.

First: RDEMEEWSASEKSLFEEALEKYGKDFNDIRQDFLPWKSLTSIIEYYYMWKTTD [A12K]
Second: RDEMEEWSASENSLFEEALEKYGKDFNDIRQDFLPWKSLTSIIEYYYMWKTTD [A12N]
The abundance fitness of the first is higher: 0.358 ± 0.077 for the first, -0.15 ± 0.093 for the second.
